# Test results: publication doi:10.1101/714493
# Tests used:
# Assay in all cases: SEC
# [1] = target: EfBSH R207A (Enterococcus faecalis)
# [2] = target: EfBSH E269Q (Enterococcus faecalis)
# [3] = target: EfBSH E269D (Enterococcus faecalis)
# [4] = target: EfBSH E269A (Enterococcus faecalis)
# [5] = target: Bile Salt Hydrolase from Enterococcus faecalis, wild type (Enterococcus faecalis)
substance,measurement,setting,value
EfBSH R207A (enzyme),stoichiometry N,[1],4
EfBSH E269Q (enzyme),stoichiometry N,[2],4
EfBSH E269D (enzyme),stoichiometry N,[3],4
EfBSH E269A (enzyme),stoichiometry N,[4],4
"Bile Salt Hydrolase from Enterococcus faecalis, wild type (enzyme)",stoichiometry N,[5],4
